For test [1], the target named is T1, six-transmembrane epithelial antigen of prostate-2 (STEAP2) (human, UniProt Q8NFT2 1-490).
T1 construct: Endogenous STEAP2 on prostate cancer cell lines (LNCaP, C4-2, 22RV1); also called STEAP2 receptor
T1 sequence: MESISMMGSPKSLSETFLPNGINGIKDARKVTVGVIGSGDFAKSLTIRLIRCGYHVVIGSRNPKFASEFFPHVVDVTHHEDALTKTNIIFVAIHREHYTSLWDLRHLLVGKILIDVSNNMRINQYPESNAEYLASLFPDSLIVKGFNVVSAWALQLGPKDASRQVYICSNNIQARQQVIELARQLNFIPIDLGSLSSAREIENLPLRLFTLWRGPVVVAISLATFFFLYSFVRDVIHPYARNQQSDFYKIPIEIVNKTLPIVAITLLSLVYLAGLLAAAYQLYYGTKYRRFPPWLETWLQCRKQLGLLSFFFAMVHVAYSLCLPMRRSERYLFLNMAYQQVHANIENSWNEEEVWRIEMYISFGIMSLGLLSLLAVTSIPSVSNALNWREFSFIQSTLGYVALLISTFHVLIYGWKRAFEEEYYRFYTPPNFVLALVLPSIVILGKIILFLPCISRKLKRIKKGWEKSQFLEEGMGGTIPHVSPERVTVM
The experiment in a line: cell binding on LNCaP cells.

Test [2] deals with T1, six-transmembrane epithelial antigen of …. The experiment in a line: cell-based binding on LNCaP cells.
For test [3] the target is unchanged. Kind of test: radioligand saturation binding on C4-2 cells, single-site fit of specific binding. How it is done:
(§1) The purpose of this assay was to ensure that the radioimmunoconjugates maintained the binding characteristics of the native antibody in STEAP2 expressing cell lines including C4-2, 22RV1 and LNCaP. One day prior to the experiment, cells (1.5-2×10⁵) were seeded in 48-well microplates in 500 μL supplemented medium. At the start of the assay, cells were washed with PBS once and then treated with either Binding Buffer or 5 μM cold antibody [total binding (TB) and non-specific binding (NSB) respectively]. Plates were incubated at 4° C. for about one hour with mild shaking. Following incubation, both […] and NSB cells were treated with increasing concentrations of [¹⁷⁷Lu]-STEAP2 (40A3-LO11) or [¹⁷⁷Lu]-STEAP2 (40A3-LO14) (0.098 nM to 50 nM) and were incubated at 4° C. for about two hours with mild shaking.
(§2) Following incubation, the cells were washed twice with PBS and were then lysed with 1% Triton-X-100. The lysates were transferred to gamma counting tubes and run along with the standard of [¹⁷⁷Lu]-STEAP2 (40A3-LO11) or [¹⁷⁷Lu]-STEAP2 (40A3-LO14) on the Wizard 1470 gamma counter to determine the amount of radioactivity in counts per minute (CPM) for each lysate. The remaining lysate from each well (25 μL) was used for analyzing the protein content using a standard protein quantification assay.

Test [4] shares this target. The experiment in a line: radioligand saturation binding on 22RV1 cells, single-site fit of specific binding. The method, then:
as §1, §2

Test [5] shares this target. The experiment in a line: radioligand saturation binding on LNCaP cells, single-site fit of specific binding. The method, then:
as §1, §2

For test [6] the target is unchanged. Kind of test: saturation radioligand binding on C4-2 cells (4 °C); specific = total minus nonspecific binding in the presence of excess unlabeled antibody; single-site fit. How it is done:
as §1, §2

The target is the same in test [7]. Kind of test: saturation radioligand binding on 22RV1 cells (4 °C); specific = total minus nonspecific binding in the presence of excess unlabeled antibody; single-site fit. How it is done:
as §1, §2

For test [8] the target is unchanged. The experiment in a line: saturation radioligand binding on LNCaP cells (4 °C); specific = total minus nonspecific binding in the presence of excess unlabeled antibody; single-site fit. The method, then: as §1, §2

B1: 40A3-LO14 (IgG1-TM) (antibody, V domains shown)
VH: QVQLQQSGPGLVKPSQTLSLTCAISGDSVSRNSAVWNWIRQSPSRGLEWLGRTYYRSKWYNDYAPSVKSRITINPDTSKNQFSLQLNSVTPEDTAVYYCARGLRQNQFYYYMDVWGKGTTVTVSS
VL: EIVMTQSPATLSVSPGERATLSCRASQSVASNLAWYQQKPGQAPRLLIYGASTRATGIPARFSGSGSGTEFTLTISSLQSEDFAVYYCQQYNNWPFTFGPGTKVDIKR
notes: Human IgG1 kappa with reduced effector function (IgG1-TM); also called 40A3GL-LO14; 40A3-LO14 hIgG-TM
Molecule B1 gave an EC50 in test [1] of 1.67 nM. Also, in test [2], the “fold improvement in binding relative to 40A3-LO7” value was found to be 26 fold.

B2: [177Lu]-STEAP2 (40A3-LO14) (antibody, human IgG1, kappa, V domains shown)
VH: QVQLQQSGPGLVKPSQTLSLTCAISGDSVSRNSAVWNWIRQSPSRGLEWLGRTYYRSKWYNDYAPSVKSRITINPDTSKNQFSLQLNSVTPEDTAVYYCARGLRQNQFYYYMDVWGKGTTVTVSS
VL: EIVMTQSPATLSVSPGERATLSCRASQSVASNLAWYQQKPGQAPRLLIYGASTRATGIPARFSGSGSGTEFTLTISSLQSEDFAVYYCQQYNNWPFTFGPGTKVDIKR
modifications: 177Lu complex of the DOTA chelate of Compound C (PEG3 linker) conjugated to the antibody through its tetrafluorophenyl ester; sites and chain not stated; typical chelate to antibody ratios 5-5.5
notes: also called [177Lu]-Compound C-anti-STEAP2 conjugate; [177Lu]-DOTA-anti-STEAP2 conjugate
B2: the Kd was approximately 2.8 nM in test [3]; approximately 3.2 nM in test [4]; approximately 0.79 nM in test [5]; 2.82 nM in test [6]; 3.26 nM in test [7].

B3: 40A3-LO11 (IgG1-TM) (antibody, V domains shown)
VH: QVQLQQSGPGLVKPSQTLSLTCAISGDSVSRNSAVWNWIRQSPSRGLEWLGRTYYRSKWYNDYAPSVKSRITINPDTSKNQFSLQLNSVTPEDTAVYYCARGLLQNQFYYYMDVWGKGTTVTVSS
VL: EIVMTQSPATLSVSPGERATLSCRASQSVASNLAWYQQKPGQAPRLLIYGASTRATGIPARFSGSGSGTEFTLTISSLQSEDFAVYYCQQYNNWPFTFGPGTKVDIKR
B3: the EC50 in test [1] stood at 2.38 nM.

B4: [177Lu]-STEAP2 (40A3-LO11) (antibody, human IgG1, kappa, V domains shown)
VH: QVQLQQSGPGLVKPSQTLSLTCAISGDSVSRNSAVWNWIRQSPSRGLEWLGRTYYRSKWYNDYAPSVKSRITINPDTSKNQFSLQLNSVTPEDTAVYYCARGLLQNQFYYYMDVWGKGTTVTVSS
VL: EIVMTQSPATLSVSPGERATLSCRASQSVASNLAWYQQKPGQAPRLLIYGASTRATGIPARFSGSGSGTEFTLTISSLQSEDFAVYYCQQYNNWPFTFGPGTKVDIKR
modifications: 177Lu complex of the DOTA chelate of Compound C (PEG3 linker) conjugated to the antibody; sites, chain and ratio not stated for this antibody
notes: Radioimmunoconjugate of 40A3-LO11; also called [177Lu]-Compound C-anti-STEAP2 conjugate
On to B4, for which the Kd in test [3] was approximately 6.9 nM; in test [4], approximately 6.7 nM; in test [5] it was approximately 1.2 nM; in test [6], 6.58 nM; in test [8], 1.24 nM; in test [7] it was 6.77 nM.
